± gives the standard error. This sample holds only a part of the variants without activity.
B1: glmS ribozyme (parent)
chain: AUAAAAGCGCCAGAACUACAGAAAUGUAGUUGACGAGGAGGAGGUUUAUCGAAUUUUCGGCGGAUGCCUCCAAA

Assays:
Conditions in all cases: with glucosamine-6-phosphate
glucosamine-6-phosphate [1] = variants of: B1; assay: self-cleavage kobs at 640 uM GlcN6P; higher = faster cleavage; RNA array
Method in brief: (§1)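 Glucosamine-6-phosphate, from 40 μM to 10 mM in HEPES/KCl/Mg(OAc)2 buffer, was flowed over sequenced MiSeq chips carrying barcoded ribozyme variants transcribed in situ by E. coli RNA polymerase. A hybridised Cy3 probe tracked the variants at 37 °C as tiles were imaged over ~14 h. kobs, kcat and KM were obtained by fitting normalised per-tile medians to exponential decays and then applying weighted Michaelis–Menten fits across concentrations.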

glucosamine-6-phosphate [2] = variants of: B1; assay: self-cleavage kobs at 2500 uM GlcN6P; higher = faster cleavage; RNA array
Method in brief: as §1

glucosamine-6-phosphate [3] = variants of: B1; assay: self-cleavage kobs at 10000 uM GlcN6P; higher = faster cleavage; RNA array
Method in brief: as §1

Variant | self-cleavage kobs at 640 uM GlcN6P (glucosamine-6-phosphate [1]) | self-cleavage kobs at 2500 uM GlcN6P (glucosamine-6-phosphate [2]) | self-cleavage kobs at 10000 uM GlcN6P (glucosamine-6-phosphate [3])
C34G G60A G62C U69G | < 1e-05 s⁻¹ |  | 
C8G A12U C70U | < 1e-05 s⁻¹ | < 1e-05 s⁻¹ | 
G7C A64U G66U | < 1e-05 s⁻¹ |  | 
G40A A48U U56A G59U C68A | < 1e-05 s⁻¹ | < 1e-05 s⁻¹ | 
A14G A36C G66A | < 1e-05 s⁻¹ |  | 
G13U C16U G37U U47G U57A C58U G60U | < 1e-05 s⁻¹ |  | 
A14U C34U G35A C71U | < 1e-05 s⁻¹ |  | 
A14U G40A A53C C71A | 5.44e-05 ± 1.1e-05 s⁻¹ | 0.000153 ± 2.6e-05 s⁻¹ | 
A52C G59A U65A | < 1e-05 s⁻¹ | < 1e-05 s⁻¹ | 
A53U C67G C68G | 4.57e-05 ± 2.1e-05 s⁻¹ |  | 
A12U A15G C67A | 0.00125 ± 0.00035 s⁻¹ | 0.00634 ± 0.0023 s⁻¹ | 
U30C G41C C71U | < 1e-05 s⁻¹ |  | 
A15C C16G A39C | 3.83e-05 ± 1.7e-05 s⁻¹ | 0.000198 ± 3.4e-05 s⁻¹ | 
G26U G32U | 0.000131 ± 4.5e-05 s⁻¹ | 0.000943 ± 0.00021 s⁻¹ | 
A42C U46G C71G | < 1e-05 s⁻¹ | < 1e-05 s⁻¹ | 
U31G G44U G62U | < 1e-05 s⁻¹ | < 1e-05 s⁻¹ | 
G43C C61U G62A | < 1e-05 s⁻¹ |  | 
U54A U55G A64C | 3.35e-05 ± 1.7e-05 s⁻¹ | 5.81e-05 ± 1.7e-05 s⁻¹ | 
A6C G29C A36U G43U G66A | < 1e-05 s⁻¹ |  | 
A39C A42U G62C A64U | < 1e-05 s⁻¹ |  | 
G38C G60C U65G | < 1e-05 s⁻¹ |  | 
C16U G35U U55A | < 1e-05 s⁻¹ |  | 
C11G G29U A42C | < 1e-05 s⁻¹ | < 1e-05 s⁻¹ | 
U46G U55C C67A | 8.32e-05 ± 1.9e-05 s⁻¹ | 6.57e-05 ± 1.5e-05 s⁻¹ | 

Variant | self-cleavage kobs at 640 uM GlcN6P (glucosamine-6-phosphate [1]) | self-cleavage kobs at 2500 uM GlcN6P (glucosamine-6-phosphate [2]) | self-cleavage kobs at 10000 uM GlcN6P (glucosamine-6-phosphate [3])
G13C G59A | < 1e-05 s⁻¹ |  | < 1e-05 s⁻¹
A12U C16U A42U | 0.000196 ± 4.1e-05 s⁻¹ |  | 
G13U U45G C67G | < 1e-05 s⁻¹ |  | 
A14C C34A U46A | < 1e-05 s⁻¹ |  | 
A12G A52G G62U | < 1e-05 s⁻¹ | < 1e-05 s⁻¹ | 
G41U C50U G60C | < 1e-05 s⁻¹ |  | 
C8U U30A C71U | < 1e-05 s⁻¹ |  | 
G7C G43U A64U | < 1e-05 s⁻¹ |  | 
C34A A42C C61U | < 1e-05 s⁻¹ | < 1e-05 s⁻¹ | 
C8A A12U A15U C70A | < 1e-05 s⁻¹ |  | 
C11G G13U G29A G66A | < 1e-05 s⁻¹ |  | 
A6C G44A A64G | < 1e-05 s⁻¹ |  | 
A53G G62C | < 1e-05 s⁻¹ | < 1e-05 s⁻¹ | 
C50U C58A C68U | 8.66e-05 ± 2.6e-05 s⁻¹ |  | 
G43A U57G U69A | < 1e-05 s⁻¹ |  | 
G32C C70G | 0.000253 ± 8.1e-05 s⁻¹ |  | 2.34e-05 ± 9.6e-06 s⁻¹
G32C A42U G60A | < 1e-05 s⁻¹ |  | 
U45G A52C U55C C70G | < 1e-05 s⁻¹ | < 1e-05 s⁻¹ | 
C8G U55G | < 1e-05 s⁻¹ | < 1e-05 s⁻¹ | 
A6U C8A C50U | < 1e-05 s⁻¹ |  | 
G9U G40U U47G U65A | < 1e-05 s⁻¹ | < 1e-05 s⁻¹ | 
C11G A12U A42G | < 1e-05 s⁻¹ | < 1e-05 s⁻¹ | 
C10U C11A G43A C68G C70U | < 1e-05 s⁻¹ |  | 
U45G U65G G66U U69C | 0.000332 ± 7.1e-05 s⁻¹ | 0.00052 ± 0.00017 s⁻¹ | 0.00192 ± 0.00028 s⁻¹

Variant | self-cleavage kobs at 640 uM GlcN6P (glucosamine-6-phosphate [1]) | self-cleavage kobs at 2500 uM GlcN6P (glucosamine-6-phosphate [2]) | self-cleavage kobs at 10000 uM GlcN6P (glucosamine-6-phosphate [3])
G7U A39G A48U | < 1e-05 s⁻¹ |  | 
G13C A15U C61U | < 1e-05 s⁻¹ |  | 
G7C G32C G59A | < 1e-05 s⁻¹ |  | 
G32A G51U C68G | 0.000156 ± 5.8e-05 s⁻¹ |  | 
C10G C68G C70U | 9.88e-05 ± 3.1e-05 s⁻¹ |  | 
A12C G29A C58G U65G C68G | 0.000168 ± 6e-05 s⁻¹ | 8.36e-05 ± 2.2e-05 s⁻¹ | 
G9A G38U U57A | < 1e-05 s⁻¹ |  | 
A15C C58U C61A C70U | 6.5e-05 ± 2.2e-05 s⁻¹ |  | 
A6G C50U C61U | < 1e-05 s⁻¹ | < 1e-05 s⁻¹ | 
G9U A42G U45A C58G | < 1e-05 s⁻¹ | < 1e-05 s⁻¹ | 
G7C G41U C67G | < 1e-05 s⁻¹ |  | 
C11A A53U U69C C71U | 0.000106 ± 4.9e-05 s⁻¹ | 5.97e-05 ± 2.3e-05 s⁻¹ | 
G32U C34A | < 1e-05 s⁻¹ | < 1e-05 s⁻¹ | < 1e-05 s⁻¹
A14C A64U C67U | < 1e-05 s⁻¹ |  | 
C8G U30A G43U | < 1e-05 s⁻¹ |  | 
A12C G29C G37A U55A | 4.45e-05 ± 1.9e-05 s⁻¹ |  | 
A15G G38A G66U | < 1e-05 s⁻¹ |  | 
C34U A42G C58U A64G U65G | < 1e-05 s⁻¹ | < 1e-05 s⁻¹ | 
U30C G38C A42U | < 1e-05 s⁻¹ | < 1e-05 s⁻¹ | 
C8U A12G G66U | < 1e-05 s⁻¹ |  | 
C11U U31A A53U C70G | 0.000209 ± 6.9e-05 s⁻¹ | 0.000251 ± 8.4e-05 s⁻¹ | 
C11A G41A U49G G63U | < 1e-05 s⁻¹ | < 1e-05 s⁻¹ | 
A33C G35A G44U C70U | < 1e-05 s⁻¹ |  | 
